Measured values from patent US20250263500A1 (BEIJING KANGHONG BIOMEDICAL, published 2025).

T1: CD24 (human, UniProt P25063 27-59)
T1 chain (looked up): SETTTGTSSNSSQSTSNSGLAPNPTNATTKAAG


Key:
CD24 [1] = molecular target: T1, CD24; test: cell-based or functional assay
CD24 [2] = molecular target: T1, CD24; test: cell-based or functional assay

Binder	Phagocytosis rate % (A549 tumor cells by human PBMC-derived M2 macrophages, antibody 5 µg/ml) (CD24 [1]) [%]	Phagocytosis rate (%) (MCF-7 tumor cells by human PBMC-derived M2 macrophages, antibody 5 µg/ml) (CD24 [2])
KH01 (antibody, mouse IgG2a, kappa, V domains shown) VH: DVQLQESGPDLVKPSQSLSLTCTVTGHSITRGYSWHWIRQFPGNKLEWMGYIHHRGTTNYNPSLKSRISFTRDTSKNQFFLQLNSLTTEDTATYFCSRGTNSAFDYWGQGTTLTVSS VL: DIQMTQTTSSLSASLGDRVTISCRASQDISNYLNWYQQKPDGTVKLLIYYTSRLHSGVPSRFSGSGSGTDYSLTISNLEQEDIATYFCQQGNTLPHTFGGGTKLEIKR	11.8	6.2
KH29 (antibody, mouse IgG2b, kappa, V domains shown) VH: DVQLQESGPDLVKPSQSLSLTCTVTGHSITRGYSWHWIRQFPGNKLEWMGYIHHRGTTNYNPSLKNRISFTRDTSKNQFFLQLNSLTTEDTATYFCSRGTNSAFDYWGQGTTLTVSS VL: DIVMSQSPSSLAVSVGEKVTLNCKSSQSLLYSKNQKNYSAWYQQKPGQSPKLLIYWASTRESGVPDRFTGSGSGTDFTLTISSVKAEDLAVYYCQQYYIYPLTFGAGTKLELKR	8.95	
KH05 (antibody, mouse IgG2b, kappa, V domains shown) VH: DVQLQESGPDLVKPSQSLSLTCTVTGHSITNGYSWHWIRQFPGNKLEWMGYIHHSGSTNYNPSLKSRISFTRDTSKNQFFLQLNSLTTEDTATYYCLRGTDRSFDYWGQGTTLTVSS VL: DIVMSQSPSSLVVSVGEKISMSCKSSQSLLYSNNQKNYLAWYQQIPGQSPKLLIYWASTRESGVPDRFTGSGSGTDFTLTISSVKAEDLAVYYCQQYYIYPLTFGSGTKLEIKR	10.4	3.2
KH33 (antibody, mouse IgG2a, kappa, V domains shown) VH: DVQLQESGPDLVKPSQSLSLTCTVTGHSITRGYSWHWIRQFPGNKLEWMGYIHHRGTTNYNPSLKSRISFTRDTSKNQFFLQLNSLTTEDTATYFCSRGTNSAFDYWGQGTTLTVSS VL: QIVLTQSPAIMSASPGEKVTMTCSASSSISYMHWYQQKPGTSPKRWIYDTSKLASGVPARFSGSGSGTSYSLTISSMEAEDAATYYCHQRSSYPCTFGGGTKLEIKR	18.3	
KH21 (antibody, mouse IgG2a, kappa, V domains shown) VH: DVQLQESGPDLVKPSQSLSLTCTVTGHSITRGYSWHWIRQFPGNKLEWMGYIHHRGTTNYNPSLKSRISFTRDTSKNQFFLQLNSLTTEDTATYFCSRGTNSAFDYWGQGTTLTVSS VL: DIVMSQSPSSLTVSVGEKITMSCKSSQSLLYSSDQKNYLAWYQQNPGQSPKLLIYWASTKASGVPDRFTGSGSGTDFTLTISSVKAEDLAVYYCQQYYIYPLTFGSGTKLEIKR	10.2	
KH10 (antibody, mouse IgG2a, kappa, V domains shown) VH: DVQLQESGPDLVKPSQSLSLTCTVTGHSITRGYSWHWIRQFPGNKLEWMGYIHHRGSTNYNPSLKSRISFTRDTSKNQFFLQLNSLTTEDTATYFCSRGTNSAFDYWGQGTTLTVSS VL: not shown	12.1	
KH19 (antibody, mouse IgG2b, kappa, V domains shown) VH: DVQLQESGPDLVKPSQSLSLTCTVTGHSITNGYSWHWIRQFPGNKLEWMGYIHHSGSTNYNPSLKSRISFTRDTSKNQFFLQLNSLTTEDTATYYCLRGTDRSFDYWGQGTTLTVSS VL: DIVMSQSPSSLAVSVGEKVTVSCKSSQSLLYSSDQKNYLTWYQQKPGQSPKLLIYWASTRESGVPDRFTGGGSGTDFTLTISSVRAEDLAVYYCQQYFIYPFTFGSGTKLEIKR	10.3	
KH03 (antibody, mouse IgG2a, kappa, V domains shown) VH: DVQLQESGPDLVKPSQSLSLTCTVTGHSITRGYSWHWIRQFPGNKLEWMGYIHHRGSTNYNPSLKSRISFTRDTSKNQFFLQLNSLTTEDTATYFCSRGTNSAFDYWGQGTTLTVSS VL: DIVMSQSPSSLTVSVGEKITMSCKSSQSLLYSSDQKNYLAWYQQNPGQSPKLLIYWASTRASGVPDRFTGSGSGTDFTLTISSVKAEDLAIYYCQQYYIYPLTFGSGTKLEIKR	11.9	3.6
KH25 (antibody, mouse IgG2b, kappa, V domains shown) VH: DVQLQESGPDLVKPSQSLSLTCTVTGHSITRGYSWHWIRQFPGNKLEWMGYIHHRGSTNYNPSLKSRISFTRDTSKNQFFLQLNSLTTEDTATYFCSRGTNSAFDYWGQGTTLTVSS VL: DIVMSQSPSSLVVSVGEKISMSCKSSQSLLYSNNQKNYLAWYQQIPGQSPKLLIYWASTRESGVPDRFTGSGSGTDFTLTISSVKAEDLAVYYCQQYYIYPLTFGSGTKLEIKR	11	6.5
KH04 (antibody, mouse IgG2a, kappa, V domains shown) VH: DVQLQESGPDLVKPSQSLSLTCTVTGHSITRGYSWHWIRQFPGNKLEWMGYIHHRGSTNYNPSLKSRISFTRDTSKNQFFLQLNSLTTEDTATYFCLRGTNSAFDYWGQGTTLTVSS VL: DIVMSQSPSSLTVSVGEKITMSCKSSQSLLYSSDQKNYLAWYQQNPGQSPKLLIYWASTKASGVPDRFTGSGSGTDFTLTISSVKAEDLAVYYCQQYYIYPLTFGSGTKLEIKR	12.8	
KH14 (antibody, mouse IgG2b, kappa, V domains shown) VH: DVQLQESGPDLVKPSQSLSLTCTVTGHSITNGYSWHWIRQFPGNKLEWMGYIHHSGSTNYNPSLKSRISFTRDTSKNQFFLQLNSLTTEDTATYYCLRGTDRSFDYWGQGTTLTVSS VL: DIVMSQSPSSLAVSVGENITMTCKSSQSLLYSNNQKNYLTWYQQNPGQSPKLLIYWASTRESGVPDRFTGSGSGTDFTLTISSVKAEDLAVYYCQQYYIYPFTFGSGTKLEIKR	11.2	3.4
KH16 (antibody, mouse IgG2a, kappa, V domains shown) VH: DVQLQESGPDLVKPSQSLSLTCTVTGYSITSGYTWHWIRQFPGNKLEWMGYIQYSGSTNYNPSLKSRISFTRDTSKNQFFLQLNSVTTEDTATYYCARGTTGGLDYWGQGTTLTVSS VL: DIVMSQSPSSLTVSVGEKITMSCKSSQSLLYSSDQKNYLAWYQQNPGQSPKLLIYWASTKASGVPDRFTGSGSGTDFTLTISSVKAEDLAVYYCQQYYIYPLTFGSGTKLEIKR	12.3	6.8
KH02 (antibody, mouse IgG2a, kappa, V domains shown) VH: DVQLQESGPDLVKPSHSLSLTCTVTGYSITRGYSWHWIRQFPGNKLEWMGYIHYSGSTNYNPSLKSRISFTRDTSKNQFFLNLTSLTSEDTATYYCSRGSTWAFDHWGQGTILTVSS VL: DIVMSQSPSSLAVSVGEKITMSCKSSQSLLYSNNQKNYLAWYQQIPGQSPKLLIYLASTRESGVPDRFTGSGSGTDFTLTISSVKAEDLAVYYCQQYFIYPMSFGSGTKLEIKR	10.3	3
KH27 (antibody, mouse IgG2b, kappa, V domains shown) VH: DVQLQESGPDLVKPSQSLSLTCTVTGYSITRGYTWHWIRQFPGNKLEWMGYIQFSGSTKYNPSLKSRFSITRDTSKNQFFLQLNSVTTEDTATYYCARGTTTALDYWGQGTSVTVSS VL: DIVMSQSPSSLAVSIGEKVTMNCQSSQSLLYSSNQKNYLVWYQQKPGQSPKLLIHWASTRESGVPDRFTGSGSGTDFTLTISSVKAEDLAVYYCQQYYIYPFTFGSGTKLEIKR	10.6	
KH12 (antibody, mouse IgG2a, kappa, V domains shown) VH: DVQLQESGPDLVKPSHSFSLTCTVTGYSITRGYSWHWIRQFPGNKLEWMGYIHYSGNTNYNPSLKSRFSFTRDTSKNQFFLNLTSLTSEDTATYYCSRGSTWAFDHWGQGTILTVSS VL: DIVMSQSPSSLTVSVGEKVTMSCKSSQSLLYSSDQKNYLTWYQQKPGQSPKLLIYWASTRYSGVPDRFTGSGSGTDFTLTISSVKAEDLAVYYCQQYYIYPFTFGSGTKLEIKR	11.1	
KH06 (antibody, V domains shown) VH: DVQLQESGPDLVNPSQSLSLTCTVTGYSISRGYSWHWLRRFPGNKLEWMGFIHYSGTTNYNPSLKSRISFTRDTSKNQFFLQLNSLTTEDTATYYCLRGTDRSFDYWGQGTTLTVSS VL: DIVMSQSPSSLVVSVGEKISMSCKSSQSLLYSNNQKNYLAWYQQIPGQSPKLLIYWASTRESGVPDRFTGSGSGTDFTLTISSVKAEDLAVYYCQQYYIYPLTFGSGTKLEIKR	10.9	4.3
KH07 (antibody, mouse IgG2b, kappa, V domains shown) VH: DVQLQESGPDLEKPSQSLSLTCTVTGYSITRGYSWHWIRQFPGNKLEWMGYIHYSGSTKYNPSLKSRVSFTRDTSKNQFFLQLNSLSPEDTATYYCSRGSDRAFDYWGQGTTLTVSS VL: DIVMSQSPSSLAVSIGEKVTMNCQSSQSLLYSNNQKNYLVWYQQKPGQSPKLLIHWASTRESGVPDRFTGSGSGTDFTLTISSVKAEDLAVYYCQQYYIYPFTFGSGTKLEIKR	10.1	
